Assay results taken from patent US20090036382A1, “TGF-Beta Modulators and Use Thereof” (Universita' Degli Studi Di Padova, priority 2006, published 2009).
“Also recorded” adds a separate entry of the source.

Assays:
pro TGF-β1 = assay: CAGA12-lux luciferase reporter in HEK293T cells co-transfected with pro TGF-β1 vector; assay type: cell-based, human; settings: CAGA12-lux, co-transfection with pro TGF-β1 vector, FIG. 2B, 2C
Source text: • The construct for emilin 1 expression was engineered in pCS2 vector (Rupp R. A. et al., 1994, Genes Dev 8, 1311-1323) (for a physical map of the vector, see the site faculty.washington.edu/rtmoon/pcs2+.html) as described (Zanetti M. et al., 2004, Mol Cell Biol 24, 638-650); the vector used for proTGF-β expression in MEF and HEK293T cells is pCDNA3.1 (Invitrogen). Vectors containing the coding sequence for human pro TGF-β are described in Young and Murphy-Ullrich, 2004 (Young and Murphy-Ullrich, 2004, J Biol Chem 279, 38032-38039). The human pro TGF-β cDNA sequence is reported in the data bank (NP_000660; protein 000651). • The vector for Furin/SPC 1 expression is pCDNA3.1 (Invitrogen) • p15 and CAGA 12 promoter fragments are described in Jonk L. J. et al., 1998, J Biol Chem 273, 21145-21152 […]. • Constructs containing Flag sequences are described in Young G. D and Murphy-Ullrich J E, 2004, J Biol Chem 279, 38032-38039. • Constructs containing the Flag epitope (e.g. Flag-EMI-domain-GPI) were prepared as described in Chubet R G et al. Biotechniques 1996; 20(1):136-141 and detected by anti-Flag antibody (Kodak Inc.). • Constructs containing the GPI anchor were prepared as described in the Manual “Current Protocols in Cell Biology” Howard R. Petty Wayne State University, Detroit, Mich.; Juan S. Bonifacino, Mary Dasso, Joe B. Harford, Jennifer Lippincott-Schwartz, and Kenneth M. Yamada (eds.), Copyright C 2003 John Wiley & Sons, Inc. (GPI-anchor). In the construct Flag-EMI domain-GPI, the Flag sequence was inserted at the N-terminus after the signal peptide, while the GPI-anchor sequence was placed at the COOH-terminal end. • The construct emilin 1-KDEL was obtained by inserting the KDEL coding sequence described by Munro S., and Pelham, H. R., 1987, Cell 48, 899-907 upstream the emilin 1 STOP codon. • The construct containing the type II TGF-β receptor with HA epitope was described in Wrana J. L. et al., 1994, Nature 370, 341-347. • supplier of the drugs used: SP600125 (Calbiochem), SB431542 (Tocris). • Purified recombinant LAP and TGF-β1 proteins were purchased from (R&D Systems)
To verify how emilin or the EMI domain can contrast TGF-β1 activity independently from receptor binding, HEK293T cells were transfected with a construct coding luciferase placed under control of a TGF-β activated promoter: CAGA12-lux (Jonk et al., 1998) alone or in combination with a emilin1 expression vector (500 ng) as shown in FIG. 2B. After transfection, cells were treated (black bar) or not treated (white bar) with 5 ng/ml recombinant TGF-1 (lanes 1 and 2). Column bars from 3 to 6 report luciferase expression values in experiments with cells co-transfected with the expression vector for emilin1 (or EMI-domain or emilin1ΔEMI) alone (white bars) or in combination with the vector encoding pro TGF-β1 (black bars). Values show the mean±st. dev.
As further validation of the above observations, HEK293T cells were cotransfected with expression plasmids carrying the cDNAs shown in the summary scheme above the figure, along with CAGA12-lux and CMV-lacZ constructs, and luciferase expression levels were measured.

TGF-β3 = assay: Experiments in Xenopus on interaction of the EMI domain with TGF-β3
pro TGF-β = biological target: T1, pro TGF-β (Homo sapiens, UniProt P01137); assay: Co-immunoprecipitation / Western blot of EMI domain or emilin1 with pro TGF-β in HEK293T cells; assay type: binding; settings: HEK293T cell extracts or culture medium; anti-Flag / anti-LAP IP; FIG. 4A-4C
T1 construct: expressed in transfected cells; host or cells: HEK293T
T1 sequence (P01137 30-390): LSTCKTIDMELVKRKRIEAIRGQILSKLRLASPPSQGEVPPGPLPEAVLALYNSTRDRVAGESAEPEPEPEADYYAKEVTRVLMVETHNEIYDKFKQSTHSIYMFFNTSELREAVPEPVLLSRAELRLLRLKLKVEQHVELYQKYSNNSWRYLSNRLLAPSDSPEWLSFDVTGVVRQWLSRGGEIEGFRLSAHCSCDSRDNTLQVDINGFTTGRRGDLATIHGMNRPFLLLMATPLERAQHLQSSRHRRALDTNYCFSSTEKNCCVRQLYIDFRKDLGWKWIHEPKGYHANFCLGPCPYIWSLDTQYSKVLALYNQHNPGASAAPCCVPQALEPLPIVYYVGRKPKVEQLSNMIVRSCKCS
Source text: • The construct for emilin 1 expression was engineered in pCS2 vector (Rupp R. A. et al., 1994, Genes Dev 8, 1311-1323) (for a physical map of the vector, see the site faculty.washington.edu/rtmoon/pcs2+.html) as described (Zanetti M. et al., 2004, Mol Cell Biol 24, 638-650); the vector used for proTGF-β expression in MEF and HEK293T cells is pCDNA3.1 (Invitrogen). Vectors containing the coding sequence for human pro TGF-β are described in Young and Murphy-Ullrich, 2004 (Young and Murphy-Ullrich, 2004, J Biol Chem 279, 38032-38039). […]

B1: EMI domain: cysteine-rich domain of emilin-1, residues 55-131, SEQ ID NO 2; in some experiments Flag-tagged and GPI-anchored (protein)
chain: RHRNWCAYVVTRTVSCVLEDGVETYVKYQPCAWGQPQCPQSIMYRRFLRPRYRVAYKTVTDMEWRCCQGYGGDDCAE
modifications: sometimes Flag tag and GPI anchor; homo sapiens
notes: in some experiments Flag-tagged and GPI-anchored
Effect on luciferase expression induced by pro TGF-β1 (pro TGF-β1): inhibits pro TGF-β
Interaction with TGF-β3 (TGF-β3): interaction
Interaction with pro TGF-β (co-immunoprecipitation) (pro TGF-β): interacts specifically; also recorded: interacts only with the intact pro TGF-β molecule
